Measured values reported in article PMC11419269 (Research Square, 2024).

T1: Human IL-34 (19–241) (human, UniProt Q6ZMJ4 19-241)
T1 construct: IL-34, human, residues 19-241, cloned into pHLsec; the oligomeric state was not measured here; source: Expi293F cells, secreted, purified from the media using NiNTA chromatography
T1 sequence (looked up): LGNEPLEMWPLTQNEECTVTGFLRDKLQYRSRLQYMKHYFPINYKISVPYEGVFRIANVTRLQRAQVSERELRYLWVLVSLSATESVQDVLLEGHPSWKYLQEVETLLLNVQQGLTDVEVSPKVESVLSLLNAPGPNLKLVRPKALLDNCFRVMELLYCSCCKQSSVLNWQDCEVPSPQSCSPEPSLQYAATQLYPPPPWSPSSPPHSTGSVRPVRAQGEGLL

B1: TREM2 R77D (receptor)
chain: HNTTVFQGVAGQSLQVSCPYDSMKHWGRRKAWCRQLGEKGPCQRVVSTHNLWLLSFLRDWNGSTAITDDTLGGTLTITLRNLQPHDAGLYQCQSLHGSEADTLRKVLVEVLADPLD
modifications: biotin on the C-terminal BirA biotinylation sequence
B2: TREM2 W44D/L69D/L71D (receptor)
chain: HNTTVFQGVAGQSLQVSCPYDSMKHDGRRKAWCRQLGEKGPCQRVVSTHNDWDLSFLRRWNGSTAITDDTLGGTLTITLRNLQPHDAGLYQCQSLHGSEADTLRKVLVEVLADPLD
modifications: biotin on the C-terminal BirA biotinylation sequence
B3: TREM2 L75D (receptor)
chain: HNTTVFQGVAGQSLQVSCPYDSMKHWGRRKAWCRQLGEKGPCQRVVSTHNLWLLSFDRRWNGSTAITDDTLGGTLTITLRNLQPHDAGLYQCQSLHGSEADTLRKVLVEVLADPLD
modifications: biotin on the C-terminal BirA biotinylation sequence
B4: TREM2 T85D (receptor)
chain: HNTTVFQGVAGQSLQVSCPYDSMKHWGRRKAWCRQLGEKGPCQRVVSTHNLWLLSFLRRWNGSTAIDDDTLGGTLTITLRNLQPHDAGLYQCQSLHGSEADTLRKVLVEVLADPLD
modifications: biotin on the C-terminal BirA biotinylation sequence
B5: TREM2 R122E (receptor)
chain: HNTTVFQGVAGQSLQVSCPYDSMKHWGRRKAWCRQLGEKGPCQRVVSTHNLWLLSFLRRWNGSTAITDDTLGGTLTITLRNLQPHDAGLYQCQSLHGSEADTLEKVLVEVLADPLD
modifications: biotin on the C-terminal BirA biotinylation sequence
B6: TREM2 W78D (receptor)
chain: HNTTVFQGVAGQSLQVSCPYDSMKHWGRRKAWCRQLGEKGPCQRVVSTHNLWLLSFLRRDNGSTAITDDTLGGTLTITLRNLQPHDAGLYQCQSLHGSEADTLRKVLVEVLADPLD
modifications: biotin on the C-terminal BirA biotinylation sequence
B7: TREM2 R46D (receptor)
chain: HNTTVFQGVAGQSLQVSCPYDSMKHWGDRKAWCRQLGEKGPCQRVVSTHNLWLLSFLRRWNGSTAITDDTLGGTLTITLRNLQPHDAGLYQCQSLHGSEADTLRKVLVEVLADPLD
modifications: biotin on the C-terminal BirA biotinylation sequence
B8: TREM2 L69D/L71D (receptor)
chain: HNTTVFQGVAGQSLQVSCPYDSMKHWGRRKAWCRQLGEKGPCQRVVSTHNDWDLSFLRRWNGSTAITDDTLGGTLTITLRNLQPHDAGLYQCQSLHGSEADTLRKVLVEVLADPLD
modifications: biotin on the C-terminal BirA biotinylation sequence
B9: TREM2 R122D/K123D (receptor)
chain: HNTTVFQGVAGQSLQVSCPYDSMKHWGRRKAWCRQLGEKGPCQRVVSTHNLWLLSFLRRWNGSTAITDDTLGGTLTITLRNLQPHDAGLYQCQSLHGSEADTLDDVLVEVLADPLD
modifications: biotin on the C-terminal BirA biotinylation sequence
B10: TREM2 WT (receptor, human, UniProt Q9NZC2 19-230, looked up)
chain: HNTTVFQGVAGQSLQVSCPYDSMKHWGRRKAWCRQLGEKGPCQRVVSTHNLWLLSFLRRWNGSTAITDDTLGGTLTITLRNLQPHDAGLYQCQSLHGSEADTLRKVLVEVLADPLDHRDAGDLWFPGESESFEDAHVEHSISRSLLEGEIPFPPTS
modifications: biotin on the C-terminal BirA biotinylation sequence
notes: TREM2, human; also called triggering receptor expressed on myeloid cells-2; source: Expi293F cells, purified, enzymatically biotinylated using BirA
B11: TREM2 R62H (receptor, human, UniProt Q9NZC2 19-230, looked up)
chain: HNTTVFQGVAGQSLQVSCPYDSMKHWGRRKAWCRQLGEKGPCQHVVSTHNLWLLSFLRRWNGSTAITDDTLGGTLTITLRNLQPHDAGLYQCQSLHGSEADTLRKVLVEVLADPLDHRDAGDLWFPGESESFEDAHVEHSISRSLLEGEIPFPPTS
modifications: biotin on the C-terminal BirA biotinylation sequence
notes: TREM2, human, AD risk variant; As m1 with the substitution; source: Expi293F cells, purified, enzymatically biotinylated using BirA
B12: TREM2 T96K (receptor, human, UniProt Q9NZC2 19-230, looked up)
chain: HNTTVFQGVAGQSLQVSCPYDSMKHWGRRKAWCRQLGEKGPCQRVVSTHNLWLLSFLRRWNGSTAITDDTLGGTLTIKLRNLQPHDAGLYQCQSLHGSEADTLRKVLVEVLADPLDHRDAGDLWFPGESESFEDAHVEHSISRSLLEGEIPFPPTS
modifications: biotin on the C-terminal BirA biotinylation sequence
notes: as for B11
B13: TREM2 D87N (receptor, human, UniProt Q9NZC2 19-230, looked up)
chain: HNTTVFQGVAGQSLQVSCPYDSMKHWGRRKAWCRQLGEKGPCQRVVSTHNLWLLSFLRRWNGSTAITDNTLGGTLTITLRNLQPHDAGLYQCQSLHGSEADTLRKVLVEVLADPLDHRDAGDLWFPGESESFEDAHVEHSISRSLLEGEIPFPPTS
modifications: biotin on the C-terminal BirA biotinylation sequence
notes: as for B11
B14: TREM2 R47H (receptor, human, UniProt Q9NZC2 19-230, looked up)
chain: HNTTVFQGVAGQSLQVSCPYDSMKHWGRHKAWCRQLGEKGPCQRVVSTHNLWLLSFLRRWNGSTAITDDTLGGTLTITLRNLQPHDAGLYQCQSLHGSEADTLRKVLVEVLADPLDHRDAGDLWFPGESESFEDAHVEHSISRSLLEGEIPFPPTS
modifications: biotin on the C-terminal BirA biotinylation sequence
notes: as for B11
B15: TREM2 R76D (receptor)
chain: HNTTVFQGVAGQSLQVSCPYDSMKHWGRRKAWCRQLGEKGPCQRVVSTHNLWLLSFLDRWNGSTAITDDTLGGTLTITLRNLQPHDAGLYQCQSLHGSEADTLRKVLVEVLADPLD
modifications: biotin on the C-terminal BirA biotinylation sequence

target: T1, Human IL-34 (19–241); test: BLI; biotinylated TREM2 WT and variants immobilised on SA biosensors; IL-34 62.5 – 1000 nM in PBS with 0.1% BSA and 0.005% Tween-20; 1:1 kinetic fits; settings: both partners purified

Point of comparison: B3, Kd 36.6 ± 0.9 nM. Against it:
- B1 — 3.1-fold higher, 114 ± 4 nM
- B2 — within 1.5-fold, 25.8 ± 0.3 nM
- B4 — 1.7-fold lower, 21.5 ± 0.6 nM
- B5 — within 1.5-fold, 29.4 ± 0.4 nM
- B6 — 2.1-fold lower, 17.2 ± 0.4 nM
- B7 — 2-fold lower, 18 ± 0.3 nM
- B8 — 1.8-fold lower, 20.2 ± 0.3 nM
- B9 — 2-fold lower, 18.5 ± 0.3 nM
- B10 — 2.2-fold lower, 16.5 ± 0.2 nM
- B11 — 2-fold higher, 75 nM
- B12 — 1.5-fold lower, 23.7 ± 0.4 nM
- B13 — within 1.5-fold, 28.4 ± 0.5 nM
- B14 — 2.2-fold higher, 79.8 ± 2.4 nM

target: T2, complement C1q; test: BLI; biotinylated TREM2 WT and variants immobilised on SA biosensors; C1q 62.5 – 1000 nM in PBS with 0.1% BSA and 0.005% Tween-20; 1:1 kinetic fits; settings: both partners purified
T2 construct: source: bought: Complement Technology (Cat#A099); copies: 6 + 6 + 6

Point of comparison: B9, Kd 820 ± 40 nM. Against it:
- B15 — 17-fold higher, 13800 ± 4860 nM
- B3 — 7.5-fold lower, 110 ± 10 nM
- B4 — 7.5-fold lower, 110 ± 10 nM
